Data set [1] has as its system HCT116 colorectal cancer cells. Description: Cellular uptake and internalization, with blocked receptor assay. In kind it is cell-based, human. The protocol:
The ^225Ac-iPSMA-RGD uptake was performed on HCT116, C6 and PC3 cell lines, which were selected based on their variable PSMA and RGD expression according to previous research by our group and others. Each cell line was diluted to 1 × 10^6 cells with 1 mL of PBS in tubes and incubated at 37 °C with 30 μL of ^225Ac-iPSMA-RGD (20 μL, 70 Bq) for 0.5 h, 1 h and 3 h (n = 6). At each time point, the tubes were centrifuged at 3000 rpm for 5 min and rinsed twice with PBS. The measured activity in a NaI(Tl) well-type detector in the pellet, represents the uptake and internalization. To remove the ^225Ac-iPSMA-RGD at the cell membrane level, 1 mL of 0.2 M CH3COOH /0.5 M NaCl was added and the pellet was resuspended. The tubes were then centrifuged and washed with PBS twice (this activity is considered internalization).

Data set [2] relates to HCT116 cells. The data set is described as follows: Apoptosis, Muse Caspase-3/7 kit with 7-AAD, flow cytometry. The format is cell-based, human. The protocol:
Apoptosis in the colorectal HCT116 cancer cell line was evaluated in triplicate, using the Muse^TM Caspase-3/7 kit, Cat No. MCH100108 (Merck Millipore, Burlington, MA, USA). Briefly, cells were seeded in cell culture flasks at a density of 1 × 10^6 cells and exposed to 4.5 Bq of (2 Gy) and 9.0 Bq […] (4 Gy) of ^225Ac-iPSMA-RGD. Untreated cells were used as the control group and the positive control was prepared through nutrient starvation for 24 h. First, cells were trypsinized and suspended in 50 µL of 1X Assay Buffer BA (1 × 10^6 cells/mL). Then, 5 µL of Caspase-3/7 reagent working solution was added at 37 °C with 5% of CO2 for 30 min. After incubation, 150 µL of Caspase 7-AAD working solution was added to each tube. Finally, tubes were incubated for 5 min, protected from light, and fluorescent intensities were examined by flow cytometry using a Muse Cell Analyzer (Merck Millipore, Burlington, MA, USA) and were conducted in triplicate).
(In general: A flow cytometer gives signals particle by particle.)

In data set [3] the test system is phosphorylated H2A.X in HCT116 cells. Description: DNA double-stranded breaks assay (phosphorylated H2A.X foci). The format is cell-based, human. Particulars: HCT116, 2 Gy and 4 Gy. The protocol:
For the evaluation of DNA double-stranded breaks (DSBs), the phosphorylation of the Ser-139 gamma histone variant H2A.X (γH2A.X) was used as a biomarker. HCT116 cells were grown on a glass slide after exposure of 4.5 Bq (2 Gy) and 9.0 Bq (4 Gy) of ^225Ac-iPSMA-RGD for 60 min. The anti-phospho-histone H2A.X (ser139) cl 6L16 ZooMAb (Cat. ZRB05636, Merck, Darmstadt, Germany) antibody was used as the primary antibody. […] To quantify the foci, clear and easily distinguishable dots were counted. At least 30 cells were imaged per slide, and the average number of foci per cell was calculated. Statistical analysis was performed with two-way ANOVA followed by Tukey’s multiple comparisons test using GraphPad Prism 5.0 Software. Data are shown as mean ± SEM. A p < 0.05 was considered statistically significant.

A short description of data set [4]: in vivo. As for the experimental part:
All animal procedures followed the Ethical Regulations for the Handling of Laboratory Animals (NOM-062-ZOO-1999) and the requirements of the Institutional Animal Care and Use Committee, according to an approved protocol (CICUAL-08-2018-2021). […] Mice were injected with 3.7 kBq (50 µL) of ^225Ac-iPSMA-RGD and necropsied at 1, 3, 24, 72, and 96 h (n = 3). The liver, heart, kidney, pancreas, lung, spleen, small intestine, and stomach were measured using the Francium-221 photopeak (218 keV) in a hyperpure germanium gamma spectrometer (Ortec, Atlanta, GA, USA). Results were recorded as a percentage of injected dose (%ID) per organ. Blood and bone samples were also dissected, and the associated activity was recorded as %ID/g. A second group of mice was inoculated subcutaneously with 1 × 10^6 HCT116 cells. […] Animals were necropsied on day 11 post-treatment, as described above. Radioisotopic/X-ray ex vivo images of the source organs and tumor were obtained in a preclinical imaging system (Bruker, XTREME, Billerica, MA, USA).

The nature of data set [5]: Absorbed radiation dose estimation (N and dose, OLINDA 2.0). The format is in vivo, athymic mice. The text has this: The %ID/organ data were used to calculate the biokinetic models. […] The ^225Ac decay chain was considered for dosimetry. […] DF (dose factor, mGy/MBq) values were obtained from OLINDA 2.0 code (Dose, Gy = NxDF).

As usually defined, the tissue uptake is the percentage of the injected dose found per gram of tissue.

For `N=C(N)NCCC[C@@H]1NC(=O)[C@H](CCCCNC(=O)CCCN2C(=O)CC(SC[C@H](NC(=O)c3ccc(NNC(=S)Nc4ccc(CC5CN(CC(=O)O)CCN(CC(=O)O)CCN(CC(=O)O)CCN(CC(=O)O)CCN(CC(=O)O)CCN5CC(=O)O)cc4)nc3)C(=O)N[C@@H](Cc3ccc4ccccc4c3)C(=O)NCCCC[C@H](NC(=O)N[C@@H](CCC(=O)O)C(=O)O)C(=O)O)C2=O)NC(=O)[C@@H](Cc2ccccc2)NC(=O)[C@H](CC(=O)O)NC(=O)CNC1=O` (stereo partly drawn) [^225Ac-iPSMA-RGD, ^225Ac-HEHA-HYNIC-iPSMA-RGD, metal not drawn], in data set [1] (HCT116 cells, blocking with unlabeled 1 mM iPSMA, RGD and iPSMA-RGD), the “Uptake and internalization, blocked vs unblocked cell receptors” value is “statistically significant difference between blocked and unblocked cell receptors”. Besides, the “Radiopharmaceutical uptake in colorectal cancer cells compared to C6 and PC3 cells” value in data set [1] (HCT116 vs C6 and PC3 cells) is listed as “significantly higher”. Besides, the “Increase in apoptotic/dead cells” value in data set [2] (HCT116, 2 Gy) is on record as “approximately 24.6%”. Further, the “Increase in apoptotic/dead cells” value in data set [2] (HCT116, 4 Gy) was about 31.2%. Also, the “Average foci of phosphorylated H2A.X” value in data set [3] is recorded as 19. For the same compound, in data set [4] (healthy mice), the Biodistribution pattern result was “rapid blood clearance with hepatobiliary and renal elimination and no accumulation in other tissue”. In addition, the tissue uptake in data set [4] (male, Nu/Nu, mouse, bone, 3.7 kBq, total radioactivity) turned out to be 0.5 ± 0.3 %ID/g. Also, in data set [5] (athymic mice), the “Radiation Absorbed Dose, Kidney” value is listed as 17.63 Gy/37 kBq and the “Radiation Absorbed Dose, Liver” value was 15.85 Gy/37 kBq. Further, the “Radiation Absorbed Dose, Tumor” value in data set [5] (athymic mice, HCT116 tumor) is reported as 237.07 Gy/37 kBq. For the same compound, in data set [5] (athymic mice, HCT116 tumor, t = 0 to 11 days), the “Total nuclear transformations N=∫t=0t=11dAtdt, Tumor” value was 7.83 MBq·h. In data set [5] (athymic mice, t = 0 to 11 days), the “Total nuclear transformations N=∫t=0t=11dAtdt, Kidney” value is on record as 3.52 MBq·h and the “Total nuclear transformations N=∫t=0t=11dAtdt, Liver” value is 5.23 MBq·h. Besides, in data set [5] (mice, from Table 1), the “Tumor-to-kidney radiation dose ratio” value is “thirteen” and the “Tumor-to-liver radiation dose ratio” value is given as “fifteen”.

(Values after PMC10705946, “^225Ac-iPSMA-RGD for Alpha-Therapy Dual Targeting of Stromal/Tumor Cell PSMA and Integrins” (International Journal of Molecular Sciences, 2023).)
